Among the data in patent publication US20240002495A1 (MITSUBISHI TANABE PHARMA, published 2024) are Kd values, retold here.

Assay [1] has as its target T1, recombinant human IL-33 protein (residues 112 to 270) (ILC0701, ATGen Co. Ltd) (human, UniProt O95760 112-270).
T1 construct: bought protein
T1 sequence: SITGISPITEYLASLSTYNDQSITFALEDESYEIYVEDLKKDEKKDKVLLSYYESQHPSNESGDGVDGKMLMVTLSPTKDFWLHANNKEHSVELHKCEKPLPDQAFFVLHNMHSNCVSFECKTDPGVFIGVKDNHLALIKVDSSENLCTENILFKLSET
As to the kind of experiment: KinExA in PBS, neutral-purified IgG. On the procedure: Each test antibody (IgG) (“antibody (IgG)” indicates an antibody having a molecular form of IgG; hereinafter, the same representation is used) was analyzed to confirm the affinity with the human IL-33 protein by measuring dissociation constant (Kd) between each test antibody and the human IL-33 protein in PBS by kinetic exclusion assay (KinExA) (KinExA3200, available from Sapidyne Instruments, Inc.). Mixture samples of a test antibody and a human IL-33 protein (ILC0701, available from ATGen Co. Ltd) were prepared. The human IL-33 protein was titrated to a constant concentration of test antibody (final concentration: several tens of pM to several hundreds of pM) over a wide concentration range of the human IL-33 protein (so that it covered the concentrations of the human IL-33 protein resulting from 12-step serial doubling dilutions, i.e. one- to 2048-fold, with the upper limit of final concentration set to several nM to several tens of nM). The mixture samples were incubated at a room temperature until the antigen-antibody reaction reached equilibrium. After the reaction reached equilibrium, the percentage of free anti-IL-33 antibody in each sample was analyzed using KinExA3200. The values of Kd were calculated by fitting the plot of percentages of anti-IL-33 antibody not bound to the human IL-33 protein (vertical axis) and concentrations of antigen (horizontal axis) to a theoretical formula, using a KinExA data analysis program (KinExA Pro Software v3.5.3, available from Sapidyne Instruments, Inc.). Beads for capturing the anti-IL-33 antibody were prepared by suspending 50 mg of Azlactone beads (Sapidyne) in 1 mL of coating solution (10 μg/mL human IL-33 protein (ILC0701, available from ATGen Co. Ltd), 50 mM sodium carbonate at pH of 9.6) and incubating the solution at a room temperature for one hour. The antibody for detection used was anti-human F(ab)′2-DyLight649 (Jackson, 309-495-006).
On the technique in general: Kinetic exclusion samples the free partner from a solution-phase mixture.

The next assay concerns the target T2, EDESYEIYV (human, not fully specified (N-terminus)).
T2 construct: synthetic peptide
T2 peptide: EDESYEIYV
The assay is described as follows: KinExA, alkaline-purified IgG, peptide. On the procedure: (§1) The mixture samples were incubated at a room temperature until the antigen-antibody reaction reached equilibrium. After the reaction reached equilibrium, the percentage of free anti-IL-33 antibody in each sample was analyzed using KinExA3200. The values of Kd were calculated by fitting the plot of percentages of anti-IL-33 antibody not bound to the human IL-33 protein (vertical axis) and concentrations of antigen (horizontal axis) to a theoretical formula, using a KinExA data analysis program (KinExA Pro Software v3.5.3, available from Sapidyne Instruments, Inc.). Beads for capturing the anti-IL-33 antibody were prepared by suspending 50 mg of Azlactone beads (Sapidyne) in 1 mL of coating solution (10 μg/mL human IL-33 protein (ILC0701, available from ATGen Co. Ltd), 50 mM sodium carbonate at pH of 9.6) and incubating the solution at a room temperature for one hour. The antibody for detection used was anti-human F(ab)′2-DyLight649 (Jackson, 309-495-006).
(§2) The anti-IL-33 monoclonal antibodies A10-1C04 and A25-3H04 bound to the epitope PEP14 as described in the Example 1. […] These peptides were synthesized, and the affinity with the alkali-purified antibodies was calculated as Kd by the KinExA experiment as in Example 9 (Table 14).

The next assay deals with T3, LEDESYEIYV (human, not fully specified (N-terminus)).
T3 construct: synthetic peptide
T3 peptide: LEDESYEIYV
As to the kind of experiment: KinExA, alkaline-purified IgG, peptide. The procedure: as §1, §2

The target of assay [2] is T4, DQSITFALEDESYEIYVEDL (PEP14) (human, not fully specified).
T4 peptide: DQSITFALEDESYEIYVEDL
As to the kind of experiment: KinExA, alkaline-purified IgG, peptide. The procedure:
as §1, §2

Where no end group is shown, it is not given here.

B1: A10-1C04 (IgG) (antibody, V domains shown)
VH: EVQLLESGGGLVQPGGSLRLSCAASGFTFSDYYMNWVRQAPGKGLEWVSSISRYSSYIYYADSVKGRFTISRDNSKNTLYLQMNSLRAEDTAVYYCARDIGGMDVWGQGTLVTVSS
VL: QSVLTQPPSASGTPGQRVTISCTGSSSNIGAVYDVHWYQQLPGTAPKLLIYRNNQRPSGVPDRFSGSKSGTSASLAISGLRSEDEADYYCQTYDSSRWVFGGGTKLTVL
notes: tested as neutral-purified and as alkaline-purified antibody; also called V1; IGN1
For the molecule B1, the Kd (usually the concentration at which binding is half-saturated) in assay [1] turned out to be 0.166 nM; with EDESYEIYV, 2070 nM; in the assay with LEDESYEIYV it was 386 nM; in assay [2] it was 9 nM.
